Each block holds one binder with its values, some of them ahead of it.
How the values were obtained:
cyno CLDN6 = molecular target: T1, cyno CLDN6 (cyno); assay: flow cytometry, CHOK1/Cyno CLDN6-GFP cells
T1 construct: whole, on cells; also called cynomolgus CLDN6

human claudin 6 (CLDN6) [1] = molecular target: T2, human claudin 6 (CLDN6) (human, UniProt P56747 1-220); assay: flow cytometry, CHOK1/human CLDN6-GFP cells
T2 construct: also called human CLDN6; hCLDN6
T2 sequence: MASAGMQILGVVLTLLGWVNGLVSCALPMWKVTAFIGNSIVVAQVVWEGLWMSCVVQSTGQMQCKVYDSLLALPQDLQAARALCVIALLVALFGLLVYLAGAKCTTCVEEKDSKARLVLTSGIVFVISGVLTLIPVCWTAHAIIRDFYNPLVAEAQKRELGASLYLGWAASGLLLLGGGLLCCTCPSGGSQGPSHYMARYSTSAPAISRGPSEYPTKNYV

human claudin 6 (CLDN6) [2] = molecular target: T2, human claudin 6 (CLDN6); assay: flow cytometry, PA-1 cells (endogenous CLDN6)
human claudin 9 (CLDN9) [3] = molecular target: T3, human claudin 9 (CLDN9) (human, UniProt O95484 1-217); assay: flow cytometry, CHOK1/human CLDN9-GFP cells
T3 construct: also called human CLDN9
T3 sequence: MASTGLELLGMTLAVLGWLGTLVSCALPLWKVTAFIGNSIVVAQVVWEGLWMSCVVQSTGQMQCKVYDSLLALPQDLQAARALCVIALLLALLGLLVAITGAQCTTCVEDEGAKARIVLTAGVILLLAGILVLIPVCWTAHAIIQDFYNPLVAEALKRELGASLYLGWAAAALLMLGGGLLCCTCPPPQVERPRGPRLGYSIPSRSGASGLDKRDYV

mouse CLDN6 = molecular target: T4, mouse CLDN6 (mouse, UniProt Q9Z262 1-219); assay: flow cytometry, CHOK1/mouse CLDN6-GFP cells
T4 construct: whole, on cells
T4 sequence (looked up): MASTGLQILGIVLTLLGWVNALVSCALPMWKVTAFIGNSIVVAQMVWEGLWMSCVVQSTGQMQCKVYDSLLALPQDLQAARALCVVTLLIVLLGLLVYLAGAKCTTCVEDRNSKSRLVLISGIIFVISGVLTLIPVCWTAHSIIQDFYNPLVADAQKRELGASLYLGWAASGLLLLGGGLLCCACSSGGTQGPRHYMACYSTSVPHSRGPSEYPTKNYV

[4] = molecular target: T5, human native CD3 on live cells (HuT78, Jurkat) (human, UniProt P07766 23-207; P09693 23-182; P04234 22-171); assay: FACS, CD3-expressing Jurkat cells
T5 construct: whole, on cells; also called human CD3
T5 sequence (P07766 23-207, chain 1 of 3): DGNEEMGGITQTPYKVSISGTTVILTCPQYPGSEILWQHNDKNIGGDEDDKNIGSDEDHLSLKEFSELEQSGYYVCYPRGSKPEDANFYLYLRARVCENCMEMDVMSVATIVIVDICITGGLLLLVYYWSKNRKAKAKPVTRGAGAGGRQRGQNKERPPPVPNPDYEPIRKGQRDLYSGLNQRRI
T5 sequence (P09693 23-182, chain 2 of 3): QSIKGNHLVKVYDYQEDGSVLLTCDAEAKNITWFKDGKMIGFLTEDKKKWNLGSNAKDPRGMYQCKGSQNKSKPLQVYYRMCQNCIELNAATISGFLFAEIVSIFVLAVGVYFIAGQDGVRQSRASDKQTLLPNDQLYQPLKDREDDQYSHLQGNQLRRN
T5 sequence (P04234 22-171, chain 3 of 3): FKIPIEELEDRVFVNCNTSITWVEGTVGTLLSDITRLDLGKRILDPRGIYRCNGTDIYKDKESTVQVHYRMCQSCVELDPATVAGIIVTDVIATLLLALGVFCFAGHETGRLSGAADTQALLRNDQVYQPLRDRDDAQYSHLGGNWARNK

[5] = molecular target: T6, Cyno CDεγ (recombinant cynomolgus CD3εγ) (cyno, UniProt Q95LI5 22-117; Q95LI7 23-113); assay: SPR, recombinant protein
T6 construct: Printed as CDεγ; read as CD3εγ
T6 sequence (looked up) 1: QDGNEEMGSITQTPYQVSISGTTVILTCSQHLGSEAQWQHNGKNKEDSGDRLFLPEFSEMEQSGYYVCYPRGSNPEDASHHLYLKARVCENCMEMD
T6 sequence (looked up) 2: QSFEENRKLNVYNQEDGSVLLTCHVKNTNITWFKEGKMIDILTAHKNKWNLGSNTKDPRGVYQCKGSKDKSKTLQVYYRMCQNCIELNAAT
Protocol: (§1) The binding kinetics of CLDN6×CD3 BsAb BG143P were measured using SPR. SPR was used to measure the on-rate constant (kₐ) and off-rate constant (kd) of the antibodies to recombinant proteins of CDεγ and then determined the affinity constant (KD).

[6] = molecular target: T7, Human CDεγ (recombinant human CD3εγ) (human, UniProt P07766 23-126; P09693 23-116); assay: SPR, recombinant protein
T7 construct: Printed as CDεγ; read as CD3εγ
T7 sequence (P07766 23-126, chain 1 of 2): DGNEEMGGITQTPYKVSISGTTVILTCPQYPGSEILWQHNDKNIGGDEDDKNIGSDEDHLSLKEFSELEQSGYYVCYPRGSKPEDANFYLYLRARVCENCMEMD
T7 sequence (P09693 23-116, chain 2 of 2): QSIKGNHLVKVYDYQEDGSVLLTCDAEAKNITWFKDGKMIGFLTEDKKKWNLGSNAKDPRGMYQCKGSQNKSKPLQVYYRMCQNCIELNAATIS
Protocol: as §1

human claudin 9 (CLDN9) [7] = molecular target: T3, human claudin 9 (CLDN9); assay: flow cytometry on NCI-H1299 cells stably expressing human CLDN9, anti-human Fc gamma secondary, MFI (AF647) [right panel]
Protocol: Expressing vectors of human CLDN6 and CLDN9 were established by inserting synthesized cDNA coding corresponding sequences into mammalian expression vector. NCI-H1299 stable cells expressing human CLDN6 and CLDN9 were generated by transfection of corresponding plasmids. Cells were suspended at a concentration of 1×10⁶ cells in FACS buffer (2% FBS, 1×PBS), and the cell suspension was dispensed into a U-bottom 96-well plate ([…]). Antibody was added thereto at final top concentration of 100 nM and 2× dilute for 11 dilutions, then mixed with cells and incubated at 4° C. for 1 hour. After centrifugation, the reaction solution was removed, and the cells were washed twice with 200 μL/well FACS buffer. Then, APC-anti human Fcγ was diluted 500-fold with FACS buffer and added as secondary antibodies to the cells. The cells were incubated at 4° C. for 30 mins, then washed twice as above, and suspended in 100 μL FACS buffer. The cell suspension was subjected to flow cytometry.

human claudin 6 (CLDN6) [8] = molecular target: T2, human claudin 6 (CLDN6); assay: FACS, CLDN6-expressing PA-1 cells

- EC50 (cyno CLDN6): 6.08 nM
- EC50 (human claudin 6 (CLDN6) [1]): 3.41 nM
- EC50 (human claudin 6 (CLDN6) [2]): 3.38 nM
- binding result (human claudin 9 (CLDN9) [3]): no binding
- EC50 (mouse CLDN6): 94.7 nM
B1: BG87P (mouse anti-CLDN6 antibody, hybridoma clone) (antibody, V domains shown)
VH: QIQLQQSGPELVKPGASVKISCKASGYSFTDYHINWVKQRPGQGLEWIGWIYPGSGYTKYNEKFKVKATLTVDTSSSTAYMHLTSLTSEDSAVYFCARSGIYHYVSSYYFDHWGQGTTLTVSS
VL: DIVMTQSHTFMSTSVGDRVSITCKASQDVGTAVAWYQQKPGQSPKLLIYWASTRHTGVPDRFTGSGSGTDFTLTISNVQSEDLADYFCQQYSSYTFGGGTKLEIK
notes: Mouse antibody purified from hybridoma supernatant on protein A; also called clone BG87P

- EC50 [4]: 6.98 nM
- Kd [5]: 4.55 nM
- koff [5]: 0.00599 s⁻¹
- kon [5]: 1.32e+06 M⁻¹ s⁻¹
- Kd [6]: 8.31 nM
- koff [6]: 0.0181 s⁻¹
- kon [6]: 2.17e+06 M⁻¹ s⁻¹
- binding result (human claudin 9 (CLDN9) [7]): no binding (tested: 100 nM)
- EC50 (human claudin 6 (CLDN6) [8]): 81.3 nM
B2: CLDN6xCD3 BsAb BG143P (bispecific antibody, human IgG1, kappa)
chain: EVQLVESGGGLVQPGGSLRLSCAASGFTFSTYAMNWVRQAPGKGLEWVGRIRSKYNNYATYYADSVKGRFTISRDDAKNSLYLQMNSLRAEDTAVYYCVRHGNFGSSYVSWFAYWGQGTLVTVSSGGGGSGGGGSGGGGSEIVVTQSPATLSVSPGERATLSCRSSTGAVTTSNYANWVQQKPGQAPRGLIGGTNKRAPGIPARFSGSLSGDEATLTISSLQSEDFAVYYCALWYSNLWVFGGGTKVEIKEPKSSDKTHTCPPCPAPPAAGPSVFLFPPKPKDTLMISRTPEVTCVVVDVSHEDPEVKFNWYVDGVEVHNAKTKPREEQYNSTYRVVSVLTVLHQDWLNGKEYKCKVSNKALAAPIEKTISKAKGQPREPQVYTLPPSRDELTKNQVSLWCLVKGFYPSDIAVEWESNGQPENNYKTTPPVLDSDGSFFLYSKLTVDKSRWQQGNVFSCSVMHEALHNHYTQKSLSLSPGK
heavy: EVQLQESGGGLVQPGGSLRLSCAASGYSFSDYHINWVRQAPGKGLEWVGYIYPGSGHTKYNEKFKGRFTISRDTSSNTAYLQMNSLRAEDTAVYYCARSGIYHYVSSYYFDHWGQGTLVTVSSASTKGPSVFPLAPSSKSTSGGTAALGCLVKDYFPEPVTVSWNSGALTSGVHTFPAVLQSSGLYSLSSVVTVPSSSLGTQTYICNVNHKPSNTKVDKKVEPKSCDKTHTCPPCPAPPAAGPSVFLFPPKPKDTLMISRTPEVTCVVVDVSHEDPEVKFNWYVDGVEVHNAKTKPREEQYNSTYRVVSVLTVLHQDWLNGKEYKCKVSNKALAAPIEKTISKAKGQPREPQVYTLPPSRDELTKNQVSLSCAVKGFYPSDIAVEWESNGQPENNYKTTPPVLDSDGSFFLVSKLTVDKSRWQQGNVFSCSVMHEALHNHYTQKSLSLSPGK
light: DIQMTQSPSSLSASVGDRVTITCKASQDAGSAVAWYQQKPGKAPKLLIYWASTRHTGVPSRFSGSGSGTDFTLTISSLQPEDFATYYCQQYSSYTFGGGTKLEIKRTVAAPSVFIFPPSDEQLKSGTASVVCLLNNFYPREAKVQWKVDNALQSGNSQESVTEQDSKDSTYSLSSTLTLSKADYEKHKVYACEVTHQGLSSPVTKSFNRGEC
notes: module ratio 1:1, Fc null huIgG1, knob into hole; also called CLDN6×CD3 BsAb; CLDN6×CD3 antibody

Source: patent US20240301062A1 (BEIGENE SWITZERLAND, published 2024)
